For assay [1], the target named is T1, human CD94 expressed on cells (human primary NK cells in PBMCs; HEK cells expressing human CD94) (human, UniProt Q13241 1-179).
T1 construct: whole, on cells; also called KLRD1; Natural killer cells antigen CD94
T1 sequence (looked up): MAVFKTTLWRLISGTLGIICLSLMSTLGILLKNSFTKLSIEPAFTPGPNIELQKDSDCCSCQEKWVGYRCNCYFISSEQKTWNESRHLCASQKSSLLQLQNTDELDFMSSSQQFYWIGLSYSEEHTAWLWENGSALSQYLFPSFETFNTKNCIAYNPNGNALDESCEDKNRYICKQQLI
In words: flow cytometry, HEK cells expressing human CD94, 1st run. Here is the method:
(§1) Binding of the variant antibodies to HEK cells expressing human CD94 was also tested. Variants and ATX-130 antibodies were generated in human IgG1 form, and binding to HEK cells expressing human CD94 was assessed using flow cytometry. Experiments were run in duplicate, and the average EC50 of the 2 runs was calculated.
In general terms: Flow cytometry measures light scatter and fluorescence of single cells or particles in a stream.

The target of assay [2] is T1, human CD94 expressed on cells (human …). As to the kind of experiment: flow cytometry, HEK cells expressing human CD94, 2nd run. How it is done:
as §1

The target is the same in assay [3]. In words: flow cytometry, HEK cells expressing human CD94, average of 2 runs. How it is done: as §1
Assay [4] has the same target. As to the kind of experiment: cell-based or functional assay.

The EC50 is the midpoint of the concentration-response curve. Read a low EC50 as greater potency.

Numbering of substitutions follows the chain as printed.

B1: ATX-130 hG1 (antibody, V domains shown)
VH: EVQLLESGGGLVKPGGSLRLSCAASGFTFSSYSMNWVRQAPGKGLEWVSSISTSSNFIYYADSVKGRFTISRDNAKNSLYLQMNSLRAEDTAVYYCARDLGRYYYYMDVWGKGTTVTVSS
VL: DIVMTQSPSSLSASVGDRVTITCRASQSISSWLAWYQQKPGKAPKSLIYAASSLQSGVPSKFSGSGSGTDFTLTISSLQPEDVATYYCQKYNSAPFTFGPGTKVDIK
notes: Human IgG1 form; also called ATX-130 human IgG1
Turning to B1, the EC50 in assay [1] worked out at 0.11 nM; in assay [2], 0.12 nM; in assay [3], 0.12 nM.

B2: Ab.24 hG1 (antibody, V domains shown)
VH: B1 VH with N56S
VL: B1 VL
notes: Human IgG1 form; also called Ab.24 human IgG1
On to B2, for which the EC50 in assay [1] is 0.14 nM; in assay [2] it was 0.13 nM; in assay [3] it was 0.14 nM.

B3: Ab.28 hG1 (antibody, V domains shown)
VH: B1 VH
VL: B1 VL with G41E
notes: Human IgG1 form; also called Ab.28 human IgG1
With B3, the EC50 in assay [1], in assay [2] and in assay [3] was 0.11 nM in each case.

B4: Ab.27 hG1 (antibody, V domains shown)
VH: B1 VH
VL: B1 VL with Y36F
notes: Human IgG1 form; also called Ab.27 human IgG1
For the molecule B4, the values for the EC50 in assay [1], in assay [2] and in assay [3] were 0.26 nM, 0.17 nM and 0.22 nM, respectively.

B5: Ab.33 hG1 (antibody, V domains shown)
VH: B1 VH
VL: B1 VL with K90Q
notes: Human IgG1 form; also called Ab.33 human IgG1
For the molecule B5, the EC50 came to 0.25 nM in assay [1], 0.13 nM in assay [2] and 0.19 nM in assay [3].

B6: Ab.26 hG1 (antibody, V domains shown)
VH: B1 VH
VL: B1 VL with V3Q
notes: Human IgG1 form; also called Ab.26 human IgG1
Take B6: the EC50 in assay [1], in assay [2] and in assay [3] was 0.14 nM throughout.

B7: Ab.32 hG1 (antibody, V domains shown)
VH: B1 VH
VL: B1 VL with V83F
notes: Human IgG1 form; also called Ab.32 human IgG1
For B7, the EC50 was determined as 0.12 nM in assay [1], 0.11 nM in assay [2] and 0.12 nM in assay [3].

B8: Ab.29 hG1 (antibody, V domains shown)
VH: B1 VH
VL: B1 VL with A43V
notes: Human IgG1 form; also called Ab.29 human IgG1
Take B8: the EC50 in assay [1] was 0.18 nM; in assay [2], 0.13 nM; in assay [3], 0.16 nM.

B9: Ab.34 hG1 (antibody, V domains shown)
VH: B1 VH
VL: B1 VL with A94Y
notes: Human IgG1 form; also called Ab.34 human IgG1
For B9, the EC50 in assay [1] is 0.16 nM; in assay [2], 0.13 nM; in assay [3] it was 0.15 nM.

B10: Ab.31 hG1 (antibody, V domains shown)
VH: B1 VH
VL: B1 VL with K61R
notes: Human IgG1 form; also called Ab.31 human IgG1
Consider B10, for which the EC50 turned out to be 0.1 nM in assay [1], 0.12 nM in assay [2] and 0.11 nM in assay [3].

B11: Ab.22 hG1 (antibody, V domains shown)
VH: B1 VH with L5V
VL: B1 VL
notes: Human IgG1 form; also called Ab.22 human IgG1
B11: the EC50 in assay [1], in assay [2] and in assay [3] was 0.12 nM each time.

B12: Ab.25 hG1 (antibody, V domains shown)
VH: B1 VH with F57Y
VL: B1 VL
notes: Human IgG1 form; VH cell printed as 'SEO ID NO: 32'; also called Ab.25 human IgG1
Consider B12, for which the EC50 in assay [1] turned out to be 0.15 nM; in assay [2], 0.14 nM; in assay [3], 0.15 nM.

B13: 18H3-KIF (partially non-fucosylated human IgG1 18H3 produced in Expi-CHO cells with kifunensine) (antibody, V domains shown)
VH: EVQLVQSGAEVKKPGESLKISCKGSGYRFTSYWIGWVRQMPGKGLEWMGIIYPGDSDTRYSPSFQGQVIISADKSITTAFLQWSSLKASDTAMYYCARPFDYGGSPGYFDYWGQGTLVTVSS
VL: DIQMTQSPSTLSASVGDRVTITCRASQSIRSWLAWYQQKPGKAPKLLIYKASSLESGVPSRFSGSGSGTEFTLTISSLQPDDFATYYCQQYNTFWTFGQGTKVEIK
On to B13, for which, in assay [4], the “IC50 of CLPD-NK leukemic cell depletion, ADCC assay with CLPD-NK patient PBMCs” value was 0.059 µg/mL and the “IC50 of NK cell depletion, ADCC assay with healthy donor PBMCs” value stood at 0.02 µg/mL.

The values above are taken from patent publication US20250197505A1 (DREN BIO, published 2025).
